Reference: paper PMC3500403
pKd: −log10 of the molar value.

Columns and labels:
[1] = biological target: taxol stabilized microtubules (UniProt Q6B856); assay: co-sedimentation
[2] = biological target: human Ska1 complex containing GFP-Ska1 (human) (UniProt Q96BD8); assay: single-molecule TIRF microscopy, intensity distribution and photobleaching steps

Sequence of human Ska1 complex (Q96BD8 whole entry): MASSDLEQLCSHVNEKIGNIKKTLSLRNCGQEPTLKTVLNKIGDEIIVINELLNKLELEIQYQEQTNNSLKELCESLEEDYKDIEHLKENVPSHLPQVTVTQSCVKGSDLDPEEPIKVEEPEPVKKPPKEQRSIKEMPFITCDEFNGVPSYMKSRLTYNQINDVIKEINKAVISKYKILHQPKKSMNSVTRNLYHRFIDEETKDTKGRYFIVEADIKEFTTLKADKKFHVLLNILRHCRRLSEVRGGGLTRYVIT
Sequence of human Ska1 complex (Q8WVK7 whole entry): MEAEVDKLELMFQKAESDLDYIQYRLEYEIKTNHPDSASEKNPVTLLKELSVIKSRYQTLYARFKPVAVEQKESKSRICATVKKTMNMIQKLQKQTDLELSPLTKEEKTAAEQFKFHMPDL
Sequence of human Ska1 complex (Q8IX90 whole entry): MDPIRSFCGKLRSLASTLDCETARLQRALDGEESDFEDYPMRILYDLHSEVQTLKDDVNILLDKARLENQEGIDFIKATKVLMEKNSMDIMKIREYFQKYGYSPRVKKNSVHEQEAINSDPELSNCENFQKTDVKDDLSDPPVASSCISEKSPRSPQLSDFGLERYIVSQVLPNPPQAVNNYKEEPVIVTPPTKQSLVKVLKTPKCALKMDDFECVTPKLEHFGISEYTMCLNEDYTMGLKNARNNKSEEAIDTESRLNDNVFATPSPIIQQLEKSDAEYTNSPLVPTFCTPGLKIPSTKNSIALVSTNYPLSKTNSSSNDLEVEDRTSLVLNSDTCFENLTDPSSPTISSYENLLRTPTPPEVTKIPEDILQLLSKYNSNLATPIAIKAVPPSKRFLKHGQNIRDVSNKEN
Sequence of human Ska1 complex containing GFP-Ska1 (Q96BD8 whole entry): as the sequence (Q96BD8 whole entry) above
Sequence of human Ska1 complex containing GFP-Ska1 (Q8WVK7 whole entry): as the sequence (Q8WVK7 whole entry) above
Sequence of human Ska1 complex containing GFP-Ska1 (Q8IX90 whole entry): as the sequence (Q8IX90 whole entry) above

Row | pKd [1] | stoichiometry N [2] | Substance
1 | 4.95 | – | C. elegans Ska1 complex (from UniProt Q9XWS0 1-243)
2 | 5.62 | – | human Ska1 complex (from UniProt Q96BD8 1-255; Q8WVK7 1-121; Q8IX90 1-412)
3 | – | 2 | human Ska1 complex containing GFP-Ska1 (from UniProt Q96BD8 1-255; Q8WVK7 1-121; Q8IX90 1-412)
